Assay results taken from article PMC9482650, “Quantitative fragmentomics allow affinity mapping of interactomes” (Nature Communications, 2022).

What follows are binders tested against T1, ARHGAP21, Q5T5U3 (assay: holdup assay). Conditions: plain residues with an end cap or a label only (N-terminal biotin on a linker: ado-ado).
T1 sequence (Q5T5U3 45-169, limits assumed, looked up): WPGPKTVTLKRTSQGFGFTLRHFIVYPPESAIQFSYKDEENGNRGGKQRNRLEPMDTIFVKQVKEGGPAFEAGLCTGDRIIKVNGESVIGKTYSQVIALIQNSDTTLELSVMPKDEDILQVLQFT
Parameters: key: below the threshold = too weak to quantify, mostly under pKd 3.1 to 4

Row | Binder | pKd
1 | ARSAAASNYV [CLDN4, O14493] | 3.9
2 | QRPYRRGSEI [KCNJ18, B7U540] | below the threshold

These binders were tested against T2, MPDZ_5, O75970 (assay: holdup assay). Conditions: plain residues with an end cap or a label only (N-terminal biotin on a linker: ado-ado).
T2 sequence (O75970 695-796, limits assumed, looked up): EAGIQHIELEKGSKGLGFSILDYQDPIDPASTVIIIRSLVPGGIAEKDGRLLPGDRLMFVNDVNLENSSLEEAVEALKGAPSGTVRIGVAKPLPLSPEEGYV
Parameters: key: below the threshold = too weak to quantify, mostly under pKd 3.1 to 4

Row | Binder | pKd
3 | ARSAAASNYV [CLDN4, O14493] | below the threshold
4 | QRPYRRGSEI [KCNJ18, B7U540] | below the threshold

The binders below were run against T3, MPDZ_10, O75970 (assay: holdup assay). Conditions: plain residues with an end cap or a label only (N-terminal biotin on a linker: ado-ado).
T3 sequence (O75970 1624-1722, limits assumed, looked up): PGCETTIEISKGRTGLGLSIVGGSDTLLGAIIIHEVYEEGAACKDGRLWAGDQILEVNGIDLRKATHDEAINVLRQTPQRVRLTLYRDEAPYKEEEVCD
Parameters: key: below the threshold = too weak to quantify, mostly under pKd 3.1 to 4

Row | Binder | pKd
5 | ARSAAASNYV [CLDN4, O14493] | below the threshold
6 | QRPYRRGSEI [KCNJ18, B7U540] | below the threshold

Each binder was assayed against PICK1, Q9NRD5 (assay: holdup assay). Conditions: plain residues with an end cap or a label only (N-terminal biotin on a linker: ado-ado).
PICK1, Q9NRD5, sequence (Q9NRD5 17-115): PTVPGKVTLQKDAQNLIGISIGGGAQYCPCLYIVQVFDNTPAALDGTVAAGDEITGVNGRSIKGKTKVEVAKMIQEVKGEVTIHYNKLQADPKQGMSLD
Parameters: key: below the threshold = too weak to quantify, mostly under pKd 3.1 to 4

Row | Binder | pKd
7 | ARSAAASNYV [CLDN4, O14493] | 4.15
8 | QRPYRRGSEI [KCNJ18, B7U540] | below the threshold

What follows are binders tested against T4, DLG3_3, Q92796 (assay: holdup assay). Conditions: plain residues with an end cap or a label only (N-terminal biotin on a linker: ado-ado).
T4 sequence (Q92796 374-475, limits assumed, looked up): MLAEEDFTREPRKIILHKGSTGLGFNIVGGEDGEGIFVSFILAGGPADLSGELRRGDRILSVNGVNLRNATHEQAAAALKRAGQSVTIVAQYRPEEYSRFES
Parameters: key: below the threshold = too weak to quantify, mostly under pKd 3.1 to 4

Row | Binder | pKd
9 | ARSAAASNYV [CLDN4, O14493] | below the threshold
10 | QRPYRRGSEI [KCNJ18, B7U540] | below the threshold

What follows are binders tested against PARD3_3, Q8TEW0 (assay: holdup assay). Conditions: plain residues with an end cap or a label only (N-terminal biotin on a linker: ado-ado).
PARD3_3, Q8TEW0, sequence (Q8TEW0 582-685): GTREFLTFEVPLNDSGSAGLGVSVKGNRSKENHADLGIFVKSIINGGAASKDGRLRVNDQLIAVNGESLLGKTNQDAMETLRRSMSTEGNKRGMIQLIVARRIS
Parameters: key: below the threshold = too weak to quantify, mostly under pKd 3.1 to 4

Row | Binder | pKd
11 | ARSAAASNYV [CLDN4, O14493] | 3.51
12 | QRPYRRGSEI [KCNJ18, B7U540] | below the threshold

Each binder was assayed against SCRIB_2, Q14160 (assay: holdup assay). Conditions: plain residues with an end cap or a label only (N-terminal biotin on a linker: ado-ado).
SCRIB_2, Q14160, sequence (Q14160 857-960): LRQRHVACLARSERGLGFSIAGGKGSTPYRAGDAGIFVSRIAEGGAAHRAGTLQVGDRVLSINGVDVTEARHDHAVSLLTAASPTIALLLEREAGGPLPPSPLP
Parameters: key: below the threshold = too weak to quantify, mostly under pKd 3.1 to 4

Row | Binder | pKd
13 | ARSAAASNYV [CLDN4, O14493] | below the threshold
14 | QRPYRRGSEI [KCNJ18, B7U540] | 3.49

The binders below were run against NHERF4_2, Q86UT5 (assay: holdup assay). Conditions: plain residues with an end cap or a label only (N-terminal biotin on a linker: ado-ado).
NHERF4_2, Q86UT5, sequence (Q86UT5 220-308): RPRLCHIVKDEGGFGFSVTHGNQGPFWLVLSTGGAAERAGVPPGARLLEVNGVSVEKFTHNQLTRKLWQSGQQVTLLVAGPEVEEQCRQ
Parameters: key: below the threshold = too weak to quantify, mostly under pKd 3.1 to 4

Row | Binder | pKd
15 | ARSAAASNYV [CLDN4, O14493] | below the threshold
16 | QRPYRRGSEI [KCNJ18, B7U540] | below the threshold

Each binder was assayed against DLG4_1, P78352 (assay: holdup assay). Conditions: plain residues with an end cap or a label only (N-terminal biotin on a linker: ado-ado).
DLG4_1, P78352, sequence (P78352 62-152): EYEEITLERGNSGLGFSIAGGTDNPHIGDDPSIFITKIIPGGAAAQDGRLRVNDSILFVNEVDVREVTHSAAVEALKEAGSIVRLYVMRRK
Parameters: key: below the threshold = too weak to quantify, mostly under pKd 3.1 to 4

Row | Binder | pKd
17 | ARSAAASNYV [CLDN4, O14493] | 3.54
18 | QRPYRRGSEI [KCNJ18, B7U540] | below the threshold

The binders below were run against IL16_1, Q14005 (assay: holdup assay). Conditions: plain residues with an end cap or a label only (N-terminal biotin on a linker: ado-ado).
IL16_1, Q14005, sequence (Q14005 210-306): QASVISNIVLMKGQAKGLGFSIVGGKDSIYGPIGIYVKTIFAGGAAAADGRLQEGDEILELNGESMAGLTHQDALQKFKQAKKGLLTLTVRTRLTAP
Parameters: key: below the threshold = too weak to quantify, mostly under pKd 3.1 to 4

Row | Binder | pKd
19 | ARSAAASNYV [CLDN4, O14493] | below the threshold
20 | QRPYRRGSEI [KCNJ18, B7U540] | 3.61

The binders below were run against MAGI2_3, Q86UL8 (assay: holdup assay). Conditions: plain residues with an end cap or a label only (N-terminal biotin on a linker: ado-ado).
MAGI2_3, Q86UL8, sequence (Q86UL8 600-682): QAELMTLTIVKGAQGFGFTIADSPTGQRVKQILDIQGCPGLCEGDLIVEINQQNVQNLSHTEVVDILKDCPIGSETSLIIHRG
Parameters: key: below the threshold = too weak to quantify, mostly under pKd 3.1 to 4

Row | Binder | pKd
21 | ARSAAASNYV [CLDN4, O14493] | below the threshold
22 | QRPYRRGSEI [KCNJ18, B7U540] | below the threshold

These binders were tested against T5, PDZD2_2, O15018 (assay: holdup assay). Conditions: plain residues with an end cap or a label only (N-terminal biotin on a linker: ado-ado).
T5 sequence (O15018 329-429, limits assumed, looked up): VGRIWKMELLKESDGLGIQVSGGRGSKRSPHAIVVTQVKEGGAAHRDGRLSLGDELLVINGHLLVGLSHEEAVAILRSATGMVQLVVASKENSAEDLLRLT
Parameters: key: below the threshold = too weak to quantify, mostly under pKd 3.1 to 4

Row | Binder | pKd
23 | ARSAAASNYV [CLDN4, O14493] | 4.49
24 | QRPYRRGSEI [KCNJ18, B7U540] | 4.79

These binders were tested against LDB3, O75112 (assay: holdup assay). Conditions: plain residues with an end cap or a label only (N-terminal biotin on a linker: ado-ado).
LDB3, O75112, sequence (O75112 1-94): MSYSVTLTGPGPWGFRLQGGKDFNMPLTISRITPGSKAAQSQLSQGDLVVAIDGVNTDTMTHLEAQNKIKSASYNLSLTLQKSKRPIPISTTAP
Parameters: key: below the threshold = too weak to quantify, mostly under pKd 3.1 to 4

Row | Binder | pKd
25 | ARSAAASNYV [CLDN4, O14493] | below the threshold
26 | QRPYRRGSEI [KCNJ18, B7U540] | below the threshold

The binders below were run against Inadl_4, Q8NI35 (assay: holdup assay). Conditions: plain residues with an end cap or a label only (N-terminal biotin on a linker: ado-ado).
Inadl_4, Q8NI35, sequence (Q8NI35 547-651): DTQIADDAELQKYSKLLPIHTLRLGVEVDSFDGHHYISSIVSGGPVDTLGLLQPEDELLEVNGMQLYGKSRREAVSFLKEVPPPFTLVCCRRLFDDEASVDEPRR
Parameters: key: below the threshold = too weak to quantify, mostly under pKd 3.1 to 4

Row | Binder | pKd
27 | ARSAAASNYV [CLDN4, O14493] | below the threshold
28 | QRPYRRGSEI [KCNJ18, B7U540] | below the threshold

What follows are binders tested against NHERF2_2, Q15599 (assay: holdup assay). Conditions: plain residues with an end cap or a label only (N-terminal biotin on a linker: ado-ado).
NHERF2_2, Q15599, sequence (Q15599 142-238): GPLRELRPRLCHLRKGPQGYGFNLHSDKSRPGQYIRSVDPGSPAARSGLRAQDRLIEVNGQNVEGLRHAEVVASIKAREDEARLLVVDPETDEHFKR
Parameters: key: below the threshold = too weak to quantify, mostly under pKd 3.1 to 4

Row | Binder | pKd
29 | ARSAAASNYV [CLDN4, O14493] | below the threshold
30 | QRPYRRGSEI [KCNJ18, B7U540] | below the threshold

What follows are binders tested against MAST2, Q6P0Q8 (assay: holdup assay). Conditions: plain residues with an end cap or a label only (N-terminal biotin on a linker: ado-ado).
MAST2, Q6P0Q8, sequence (Q6P0Q8 1099-1202): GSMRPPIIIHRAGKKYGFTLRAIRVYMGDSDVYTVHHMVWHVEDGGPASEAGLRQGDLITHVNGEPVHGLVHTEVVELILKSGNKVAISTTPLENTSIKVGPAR
Parameters: key: below the threshold = too weak to quantify, mostly under pKd 3.1 to 4

Row | Binder | pKd
31 | ARSAAASNYV [CLDN4, O14493] | below the threshold
32 | QRPYRRGSEI [KCNJ18, B7U540] | 4.1

The binders below were run against T6, NHERF3_1, Q5T2W1 (assay: holdup assay). Conditions: plain residues with an end cap or a label only (N-terminal biotin on a linker: ado-ado).
T6 sequence (Q5T2W1 4-100, limits assumed, looked up): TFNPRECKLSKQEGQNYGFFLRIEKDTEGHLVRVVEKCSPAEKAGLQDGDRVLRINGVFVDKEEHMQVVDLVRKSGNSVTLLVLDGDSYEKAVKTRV
Parameters: key: below the threshold = too weak to quantify, mostly under pKd 3.1 to 4

Row | Binder | pKd
33 | ARSAAASNYV [CLDN4, O14493] | 4.48
34 | QRPYRRGSEI [KCNJ18, B7U540] | below the threshold

These binders were tested against GRIP2_3, Q9C0E4 (assay: holdup assay). Conditions: plain residues with an end cap or a label only (N-terminal biotin on a linker: ado-ado).
GRIP2_3, Q9C0E4, sequence (Q9C0E4 238-339): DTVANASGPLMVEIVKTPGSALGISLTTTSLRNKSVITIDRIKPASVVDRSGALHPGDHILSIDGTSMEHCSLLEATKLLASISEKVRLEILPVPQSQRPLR
Parameters: key: below the threshold = too weak to quantify, mostly under pKd 3.1 to 4

Row | Binder | pKd
35 | ARSAAASNYV [CLDN4, O14493] | below the threshold
36 | QRPYRRGSEI [KCNJ18, B7U540] | below the threshold

The binders below were run against GRID2IP_2, A4D2P6 (assay: holdup assay). Conditions: plain residues with an end cap or a label only (N-terminal biotin on a linker: ado-ado).
GRID2IP_2, A4D2P6, sequence (A4D2P6 272-370): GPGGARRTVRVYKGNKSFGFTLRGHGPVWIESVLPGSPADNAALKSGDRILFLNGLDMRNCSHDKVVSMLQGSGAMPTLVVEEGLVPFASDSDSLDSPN
Parameters: key: below the threshold = too weak to quantify, mostly under pKd 3.1 to 4

Row | Binder | pKd
37 | ARSAAASNYV [CLDN4, O14493] | 3.56
38 | QRPYRRGSEI [KCNJ18, B7U540] | 3.71

The binders below were run against GRIP2_5, Q9C0E4 (assay: holdup assay). Conditions: plain residues with an end cap or a label only (N-terminal biotin on a linker: ado-ado).
GRIP2_5, Q9C0E4, sequence (Q9C0E4 544-642): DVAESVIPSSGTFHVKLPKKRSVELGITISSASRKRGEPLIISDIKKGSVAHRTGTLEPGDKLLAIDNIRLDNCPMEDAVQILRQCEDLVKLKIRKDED
Parameters: key: below the threshold = too weak to quantify, mostly under pKd 3.1 to 4

Row | Binder | pKd
39 | ARSAAASNYV [CLDN4, O14493] | below the threshold
40 | QRPYRRGSEI [KCNJ18, B7U540] | below the threshold

What follows are binders tested against T7, APBA1_2, Q02410 (assay: holdup assay). Conditions: plain residues with an end cap or a label only (N-terminal biotin on a linker: ado-ado).
T7 sequence (Q02410 742-832, limits assumed, looked up): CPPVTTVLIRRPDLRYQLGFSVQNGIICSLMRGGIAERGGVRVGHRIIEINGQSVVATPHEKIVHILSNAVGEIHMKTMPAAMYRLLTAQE
Parameters: key: below the threshold = too weak to quantify, mostly under pKd 3.1 to 4

Row | Binder | pKd
41 | ARSAAASNYV [CLDN4, O14493] | 3.83
42 | QRPYRRGSEI [KCNJ18, B7U540] | 3.53

These binders were tested against T8, MPP7, Q5T2T1 (assay: holdup assay). Conditions: plain residues with an end cap or a label only (N-terminal biotin on a linker: ado-ado).
T8 sequence (Q5T2T1 134-230, limits assumed, looked up): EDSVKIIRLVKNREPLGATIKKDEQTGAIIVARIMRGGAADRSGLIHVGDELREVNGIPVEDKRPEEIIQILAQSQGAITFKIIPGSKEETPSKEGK
Parameters: key: below the threshold = too weak to quantify, mostly under pKd 3.1 to 4

Row | Binder | pKd
43 | ARSAAASNYV [CLDN4, O14493] | below the threshold
44 | QRPYRRGSEI [KCNJ18, B7U540] | below the threshold

Each binder was assayed against T9, APBA1_1, Q02410 (assay: holdup assay). Conditions: plain residues with an end cap or a label only (N-terminal biotin on a linker: ado-ado).
T9 sequence (Q02410 651-752, limits assumed, looked up): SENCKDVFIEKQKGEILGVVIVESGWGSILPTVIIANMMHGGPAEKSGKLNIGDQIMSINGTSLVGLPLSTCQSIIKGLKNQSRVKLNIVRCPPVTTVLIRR
Parameters: key: below the threshold = too weak to quantify, mostly under pKd 3.1 to 4

Row | Binder | pKd
45 | ARSAAASNYV [CLDN4, O14493] | below the threshold
46 | QRPYRRGSEI [KCNJ18, B7U540] | below the threshold

The binders below were run against NOS1, P29475 (assay: holdup assay). Conditions: plain residues with an end cap or a label only (N-terminal biotin on a linker: ado-ado).
NOS1, P29475, sequence (P29475 9-101): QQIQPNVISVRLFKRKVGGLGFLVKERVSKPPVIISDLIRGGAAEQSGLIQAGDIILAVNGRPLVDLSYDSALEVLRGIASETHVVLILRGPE
Parameters: key: below the threshold = too weak to quantify, mostly under pKd 3.1 to 4

Row | Binder | pKd
47 | ARSAAASNYV [CLDN4, O14493] | 3.82
48 | QRPYRRGSEI [KCNJ18, B7U540] | 3.56

The binders below were run against NHERF4_4, Q86UT5 (assay: holdup assay). Conditions: plain residues with an end cap or a label only (N-terminal biotin on a linker: ado-ado).
NHERF4_4, Q86UT5, sequence (Q86UT5 464-550): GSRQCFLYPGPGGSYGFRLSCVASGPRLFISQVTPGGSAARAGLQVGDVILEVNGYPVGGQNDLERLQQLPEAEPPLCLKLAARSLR
Parameters: key: below the threshold = too weak to quantify, mostly under pKd 3.1 to 4

Row | Binder | pKd
49 | ARSAAASNYV [CLDN4, O14493] | 3.92
50 | QRPYRRGSEI [KCNJ18, B7U540] | below the threshold

Each binder was assayed against MAGI1_1, Q96QZ7 (assay: holdup assay). Conditions: plain residues with an end cap or a label only (N-terminal biotin on a linker: ado-ado).
MAGI1_1, Q96QZ7, sequence (Q96QZ7 1-106): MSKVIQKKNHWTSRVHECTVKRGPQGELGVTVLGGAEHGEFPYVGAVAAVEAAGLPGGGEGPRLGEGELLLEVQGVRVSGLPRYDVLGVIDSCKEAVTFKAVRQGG
Parameters: key: below the threshold = too weak to quantify, mostly under pKd 3.1 to 4

Row | Binder | pKd
51 | ARSAAASNYV [CLDN4, O14493] | below the threshold
52 | QRPYRRGSEI [KCNJ18, B7U540] | below the threshold

The binders below were run against T10, TX1BP3, O14907 (assay: holdup assay). Conditions: plain residues with an end cap or a label only (N-terminal biotin on a linker: ado-ado).
T10 sequence (O14907 10-122, limits assumed, looked up): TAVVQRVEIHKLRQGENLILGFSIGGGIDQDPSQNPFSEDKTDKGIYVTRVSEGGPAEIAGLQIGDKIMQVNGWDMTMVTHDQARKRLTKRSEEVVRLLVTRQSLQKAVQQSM
Parameters: key: below the threshold = too weak to quantify, mostly under pKd 3.1 to 4

Row | Binder | pKd
53 | ARSAAASNYV [CLDN4, O14493] | below the threshold
54 | QRPYRRGSEI [KCNJ18, B7U540] | below the threshold
